According to US20200069775A1, “BRAIN OSTEOCALCIN RECEPTOR AND COGNITIVE DISORDERS” (The Trustees of Columbia University in the City of New York, priority 2017, published 2020):

Target: T1, Gpr158 (Mus musculus, UniProt Q8C419)
T1 sequence (Q8C419 25-1200): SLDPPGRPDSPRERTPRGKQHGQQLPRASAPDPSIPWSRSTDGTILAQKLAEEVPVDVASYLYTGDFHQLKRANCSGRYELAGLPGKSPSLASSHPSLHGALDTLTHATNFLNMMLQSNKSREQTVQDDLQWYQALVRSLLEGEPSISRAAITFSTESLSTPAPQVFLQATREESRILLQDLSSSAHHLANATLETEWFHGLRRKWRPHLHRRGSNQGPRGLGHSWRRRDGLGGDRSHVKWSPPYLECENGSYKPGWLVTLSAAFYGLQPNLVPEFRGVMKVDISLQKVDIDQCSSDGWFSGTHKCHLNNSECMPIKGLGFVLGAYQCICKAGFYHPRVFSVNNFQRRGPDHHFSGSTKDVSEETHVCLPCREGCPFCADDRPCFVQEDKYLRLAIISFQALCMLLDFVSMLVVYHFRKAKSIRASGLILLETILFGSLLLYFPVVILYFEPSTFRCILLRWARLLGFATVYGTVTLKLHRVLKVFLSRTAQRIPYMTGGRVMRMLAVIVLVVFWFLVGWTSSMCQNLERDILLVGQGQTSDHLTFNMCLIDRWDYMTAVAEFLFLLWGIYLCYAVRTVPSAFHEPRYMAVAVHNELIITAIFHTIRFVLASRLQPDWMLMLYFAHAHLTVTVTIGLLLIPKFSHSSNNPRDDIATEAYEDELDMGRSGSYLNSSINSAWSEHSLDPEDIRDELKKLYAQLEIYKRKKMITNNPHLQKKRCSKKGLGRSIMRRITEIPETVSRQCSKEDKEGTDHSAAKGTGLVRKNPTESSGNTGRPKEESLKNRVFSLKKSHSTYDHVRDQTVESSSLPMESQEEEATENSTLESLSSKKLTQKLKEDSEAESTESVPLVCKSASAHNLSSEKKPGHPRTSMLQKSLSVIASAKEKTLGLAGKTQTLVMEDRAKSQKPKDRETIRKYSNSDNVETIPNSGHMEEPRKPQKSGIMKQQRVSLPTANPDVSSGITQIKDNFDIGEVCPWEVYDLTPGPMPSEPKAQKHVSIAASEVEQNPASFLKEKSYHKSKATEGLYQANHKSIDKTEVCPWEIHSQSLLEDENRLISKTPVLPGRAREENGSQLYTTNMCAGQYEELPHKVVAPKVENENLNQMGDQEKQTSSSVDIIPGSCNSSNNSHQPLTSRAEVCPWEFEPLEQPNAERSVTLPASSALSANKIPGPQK
Assay: Hippocampal lentiviral sh-Gpr158 knockdown followed by osteocalcin injection, NOR and CFC
Format: in vivo
Set-up: from tissue; host or cells: anterior hippocampus of living 3-month-old C57BL/6J male mice
Procedure: Mice were anesthetized with intra-peritoneal injection of […] (Rompun 2%; Bayer) and placed in a stereotaxic frame (900SL-KOPF). Ophthalmic eye ointment was applied to the cornea to prevent desiccation during surgery. The area around the incision was trimmed and Vetedine solution (Vetoquinol) was appplied. Lentiviruses expressing shRNA targeting Gpr158 or non-effective scramble shRNA in pGFP-C-shLentiVector were injected bilaterally into the anterior hippocampi using the following coordinates: (from bregma) anterior=−2.0 mm, lateral=+/−1.4 mm and height=-1.33 mm. Coordinates were determined using the Mouse Brain in Stereotaxic Coordinates (Paxinos and Franklin, 2008). Two weeks later, osteocalcin (10 ng) or NaCl were injected using the same coordinates. […]
Novel object recognition test (NOR): The NOR paradigm assesses the rodent's ability to recognize a novel object in the environment. […] These objects elicit equal levels of exploration as determined in pilot experiments (Denny, C. A., et al., 2012, Hippocampus 22:1188-1201; Oury, F., et al., 2013, Cell 155:228-241). […] Preference for the novel object is assessed based on the fraction of time that a mouse spends exploring the novel object compared to the familiar object. Exploration is scored from video recordings of each exposure and recorded using the Stopwatch program. […]

memory performance (NOR) (control (scrambled shRNA) mice, osteocalcin 10 ng in anterior hippocampus): enhanced memory performance
contextual fear conditioning (CFC) (sh-control vs sh-Gpr158 mice, osteocalcin 10 ng): A similar result was obtained
Substance: osteocalcin: Recombinant osteocalcin bacterially produced, cleaved from the GST subunit; completely undercarboxylated at all three sites; full-length mouse osteocalcin (YLGASVPSPDPLEPTREQCELNPACDELSDQYGLKTAYKRIYGITI)
